In the DeepSol protein solubility set:

test: soluble on expression in E. coli; label from the status in PepcDB or PDB records

Sequence	soluble on expression in E. coli
MCIGVPGQIRAIDGNQAKVDVCGIQRDVDLTLVGSCDENGQPRLGQWVLVHVGFAMSVINEAEARDTLDALQNMFDVEPDVGALLYGEER	not soluble
MCMHLSSPALPIGGFSYSQGLEAAIELGLVHDEASTLAWIESQLVTVMARAEAPLWLLFEAWRAGDDAAAHGWNQWFHASRETRELRQETEQMGRSLARLAQELGWGTAATRAAVAALRPATLPAVHACACAMWALPREAGLGAYVFSWLENQVAAAIKGVPLGQMAGQRMLERLRAGLPAVLADARARAGATPPRLDTFAPQYALVSARHETQFSRLFRSAAALEHHHHHH	not soluble
MCPCPHSQAQGETDGEAEWHNAALDFTHAMSYGDYLKLDKVLDAQFPLSPDHNEMLFIIQHQTSELWMKLMLHELRAAREHVKSGKLGPALKMLARVSRIFDQLVHAWAVLATMTPTEYNTIRPYLGQSSGFQSYQYREIEFILGNKNATLLKPHAHRAELLAALEQALHTPSLYDEAIRLMAAQGLPVSQERLARDAAAGTCYEASVEAAWRQVYQAPERYWDLYQLAEKLIDLEDSFRQWRFRHVTTVERIIGFKPGTGGTEGVGYLRSMLDTILFPELWRLRSNL	not soluble
MCQFIETIRIEDGQVYNLSYHTARMNRTRAAFWKEAAPIDLSGFISPPSLSGIWKCRIVYDKEIEEVGYTPYQMRMVSSLRPVASDTIDYSYKSTNREELNDLFARRGKADDILIVKDGYLTDTSIANIALYDGHTWYTPAHPLLQGTKRAELLDNRFIVEKDIRQAQLGDYSHIMLFNAMIDWKRLIIPVNEKYFIL	not soluble
MCRMFLCHGNFGEDAGRLFLALSETAKNDPLLVKAGSTWTSHSDGWGMAMLSDGSIRFEKHSRPVYEDSVPTIISSGTVLAHARKASPGEPLGNAFSHPFYAEDERYIVLLAHNGSLDKHRIANCDPKCYDRNTDSGLFLSYIMTFPGTVKERFERAIFESLKNGVFGKLTNLLVVALDKFTMIEERLYFSHNASRSEYGDLYLVNGRGWTGVFSSSILMSAHFPAYVSKSKVENDTVMDLP	not soluble
MCTKNETKPLPSFIEERLNFHIQDLIKSNENQKHLVLGKRPSENAVVMQSNDYLSLSHNELIQKAHRDAISERDDNVVMSAIFLQDDQSKPAFEHQLATFVGMESCLLSQSGWAANIGLLQTICAPNLPVYIDFFAHMSLWEGARTAGAQIHPFMHNNMNHLRKQIQRHGAGIIVVDSVYSTIGTIAPLRAIYEMAKEFDCGLVVDESHSLGTHGPEGSGLLQKLGLTQMVDFVTVSLAKTFAYRAGAILGPNKLAQSLPFVAYPAIFSSTVLPQEVVRLEKTLEVIKAADDKRECLFKRAKELAIGLKRIGFNIRSESQIIALECGSERNTERVRDFLEERDVFGAVFCRPATGRNKNIIRFSVNADMTAQQVDHVLSACQEAFDHPDLEFV	not soluble
MDAIFLKLDNIKGESQVEGFEDQIEIMSYSHNVAMQVNNDVSLTERTSGRAHVGEMSLTKFVDLATPVLNEYCCSGRLIRTAVLTLCRNDDGKMRSLIVYTLTNVLISQLSVSGGAGGKPVETMSLNFTKIEWQITAEKSDGAQQESRTSVWDLAMNQIGK	not soluble
MDAQLEWASSLVPKRQLQQQQQQQEQQQQQQQDFHKDQLMTVGMRIRQRVDQGYASRTPSTSDASLQPGVIRDYSSVIVPQFTRSPLPTANSLPPMLINQRTMSTEASSLEKWDVAEPAAEHETMVNGSKRRL	soluble
MDASLTGAVAELGTSKAAARIRAAAIEVFAAKGYGATTTREIAASLDMSPGAVYPHYKTKESLLYAISLEGHHSVLAAITAADFPDIAAPDRLMSTVTAYVTWHADNRASARVGQYELRSLSPEHFAIIADIRRSTTKVFTRIIEAGATAGDFHPFDIEAAALAITSLGIDVSRWFPSHTYSDPRIIAARYVELALRMVGCADRQPLDKPS	soluble
MDAWFEDTAMGRYVAKLEQDFFGRYLDSYRFSGMCAVQVGGPWLSLSEDVVCVPRDMSMSAENMALADVSADMLLFPHTLEGGVPSQILSEAHRILKPCGRLMLTGFNPYSLWGFSRWFDGERLPEKRFCLPLPELKRRLADVGFDIEFGKFMVYLPPVSSLGQIRFWRFMEKAGDRWWPQCAAVYGLVLVKRAAGVTPLPAWDGYLGGKALAAGAARVAD	not soluble
MDDGDTADDIMDATYRALCTHGYADLTMQDIADESDKSKAALHYHYDSKHDLLCAFLEYLYDGFVDRIEDPAGETPHERLLSLIDSVLDKPDDGSEEFGTAILEIRAHAPYEPGFRERLTKFDDYLVDELEVILEDGIADGTFKSDLDADETAQFIVTVLTGAATERVTTGRPVKCTRRMLTEYVETHLLDGQQEVTA	not soluble
MDDLADCREVFAYFDSKGDERISVQQVGDVLRALGQNPTEAEIHKCVGSFDREARLSFEDFVPIFQSVSKNREKHTVEEFVEGLSHFDKEGNGMINVAELRHLLTTLGERLSDEDVDQLLSGHNDSHGNVNISDFVRAVMNS	soluble
MDDSREESQFIVDDVSKTIKEAIETTIGGNAYQHDKVNNWTGQVVENCLTVLTKEQKPYKYIVTAMIMQKNGAGLHTASSCYWNNDTDGSCTVRWENKTMYCIVSVFGLAV	soluble
MDEIAIDPSINQDMSASEIYRFEGTLYTLPFVTKNNDISWNKSRDEYKSECRTFPPLYKSLFDRQKCGKVRFSPPLSLEQNVNAHLKGSSSQHMTTILQGVEDAGYVFPDIDMLVTTEVLNTIAGSIFNQEKSWKLRAYVTQVQGKNMVIVCDDDFEHHQRISSTQSDFPIERTEALNFAHSICVRDGTRELNNSLHGSEVVVSTIKFREKSVKMIVIGEVDLVTGKNNKSLNTIVATGRTARASFGHNVESRVDSLDYLWSRCFWLGQRLCLVGMRSTEEAPVSSAYLYSLYPPTLKERKRTNYRVDVATTCVAQVMIRLREEAAKMPHANWIIEYTGRDKEFDPAFIKINVAPDTHSFLLVQEYWHIEKEAFESAEEQKKAEDQNVVEPEKIVRTFHQMKRLPGVRKSGTIAKQFQKIINSMSS	not soluble
MDEIWFAGIDLGGTTIKLAFINQYGEIQHKWEVPTDKTGDTITVTIAKTIDSKLDELQKPKHIIKYIGMGAPGPVDMAAGVVYETVNLGWKNYALKNHLETETGIPAVIENDANIAALGEMWKGAGDGAKDVILVTLGTGVGGGIIANGEILHGINGAGGEIGHICSIPEGGAPCNCGKTGCIETIASATGIVRIAKGKIANAKKTTRLKATEQLSARDVFEAAGENDEIALEVVDYVAKHLGLVLGNLASSLNPSKIVLGGGVSRAGELLRSKVEKTFRKCAFPRAAQAADISIAALGNDAGVIGGAWIAKNEWLKHQNCLEHHHHHH	soluble
MDELFTESAKAVLAIAQEEAKYFRHQSVGSEHLLLALVLEPNGIAGKTLRQLNTDTEDIREEIEHLSGYGTMQSPMGNNNLYLPYSPRAKQIFAYAGDEAKRLGAQKIGTEHLLLGLLRDEEILASRILVNLGLSLSKMRQLLLKKMG	soluble
MDFESNGAMMEYCKSTGRTYCAFSIQQSSKLLGTVVLELFTDIAPATCANFIKYIKDGYQGTPLHRIVPNGWVQGGDIVDGSGKGDPGFVLPDETYSVKHDAPGVLGMATGGQPHTANTQFYISLSPLPFLDGKRVAFGRVLNKQSLENLLALQTLPTFQNERPVPDVVIASCHVIYNPNS	not soluble
MDFHRALSALFTNQAAVQPLLGSLGFPFNDGTSILTTALAAQSGGKKLDTPLGILPFDSLPTTNLLTPTKKIKLEDELCASPVSSRSSTVSSSHFSSPQRSPSRKMSVPIPEEKKDSAYFERRRKNNDAAKRSRDARRQKEEQIASKAHALERENMQLRGKVSSLEQEAAQLRFLLFSKISPANSEVSCESNDSTETNDSNDSKSDSTIEV	not soluble
MDGAATKFFRPWESHGSYHHSLPSISPPDSPASTSASSSSSSIGANELTTKRRKCERCTCPNCKAIKHGDRGSQHTHLCSVPGCGKTYKKTSHLRAHLRKHTGDRPFVCDWFDCGKRFDRSDQLIRHKRTHTKEYRFACKFCIRQFSRSDHLQQHLTSVHNIVVVD	not soluble
MDGDGSSFEQFIMPPSALDRLASLHIEYPMLFQLSNVSVEKTSHCGVLEFTADEGLVYLPYWMMQNMSLEEGDVMQVKNISLVKGTYIKLQPHTQDFLDISNPKAILETTLRSYSCLTTGDTIMVPYNNKQYYINVVEAKPSSAVSIIETDCEVDFAPPLDYKEPEKPQKLTPSNKRPLQVKEEEEPASKVPKFTPFTGSGKRLDGKAQTQTEPEDTKQQEKPTENGKDDEKLSVTTPRQISGKLVFGSNSKSAAKETAKVDDPKNIVQESSTKSDEAKFKVFTGKKYSLNG	soluble
MDGNDLIRLEMKRLGPMAVEKGDLLLLSGDNNADASMWDPNSNGPKSYQSQVAGLRLAAGGVFHVLTLKSAGEATLSIHFVFPSRTDPGRQVQMWVRRVGRSFQGAGSGYVLMNMRHVVNVQGKTIHTQTGNTVCLDDITDDCYLDREGRFVFVKSPVGSPPSMIAVGYTNSDGTQDLAELILTESACPEMLHVFSTLEFPD	soluble
MDGPKPNLASAASMESLNSVSSEATNPSQVRTLFVSGLPMDAKPRELYLLFRGCRGYEGALLKMTSKNGKPTSPVGFVTFLSQQDAQDARKMLQGVRFDPECAQVLRLELAKSNTKVARPKQSPPPPQHAALSAAAAGVPQFLAPMQHDLLLDPQSAALFNEQQLLALSLPHLHAAQALQAAYMPASALQQYSQNQLFAAAQMHPAAAAAASLQHSQQASQASTSACSTLFVANLSAEVNEDTLRGVFKAFSGFTRLRLHNKNGSCVAFVEYSDLQKATQAMISLQGFQITANDRGGLRIEYARNKMADVNG	soluble
MDIISLRKSPQYLEEAIAYFQRKWADENSRMVYDNCFRTCLESESPLPQWYLLINGEGEIIGCAGLATNDFNSRMDLYPWLVALFIEEQYRGHNYGNLLIKAVEEDTRRLGFGNLYLCTTHTGYYEHFNFVYIGDCYHPWGEHTRVYQKEI	soluble
MDINKLKLTPDSSIKEALKIVGQERVRLGIIVDKKDKFLGVISDSNIRKALISGKTLKDSIKDIYTKNPITIKENTSKEQLLKISAKTDIYDFPVLDEKGQILSIKSISSLLKANPNSIIIMAGGLGSRLKELTKDTPKPMLKVGKKPILESIIQRLKNQNFENFIFCVNYKKQIIEDYFQKGQKFGVKISYIKERKKLGTAGALSLIKQEFKESFIVMNADILTELDFNALLKAHKKSKALMSVCVREFEQQIPYGVITQKQGFIENIEEKPTQKFLVSAGIYVLENEILNLIAKNEYLDMPELIKLVLQKGKVNTYIINDYWIDIGRPDEFLKANEDFKLEHHHHHH	soluble
MDINTDKYKNITRNLEREMINLNPIQRGGILPTESKKIIYEYWDGYSVCDYCSGRLDQIETPPINEFLEDMSKFLGMDITRPTHGARESKYAVMNSICKEGDYVVLDGNAHYTSYVALERAKLNYEKTDIEEYPTFRVIPESYAEKIDMLEDSKKNIGLILLTHVDGNYGNVADVEKVGKIAKSKGYPFLLNCAYSAGRMPIDGKKLNVDFIAASGHKSMAASGPCGLLSINKKYENEVLETSKVNVLKELQMLGCTSRGIPILSLMASFEHLIERVKKWDLELEKTRKVVNELEPLGFKQIGEKPRNHDIIRFETPILDEIAEKDKRRGFFFYEELKKRGIGGIRRGVTKEFKMSVYGLTNTQVDYVINSMKSIINELR	not soluble
